Measured values reported in patent US20070148163A1 (Kyowa Kirin, published 2007).
Blank lines part the entries; values can stand above or below the binder they belong to. cellulose membrane = not defined here

Experiments:
[1] = target: T1, 23rd of the 82 13-mer peptides covering the extracellular region of CD40 (reading uncertain); experiment: SPOT peptide array (13-mers on cellulose membrane), Western-type detection, spot intensity by LumiImager
T1 construct: also called 23rd peptide
T1 peptide: Ac-SEFLDTWNRETHC-{cellulose membrane}
Protocol: (§1) The reaction thereafter was carried out based on a conventional Western analysis (see Reineke, U. et al. (2001), “Epitope mapping with synthetic peptides prepared by SPOT synthesis.” Antibody Engineering (Springer Lab Manual) Eds.: Kontermann/Dubel, 433-459, for example). In the analysis, coloring intensity of each spot was quantified using Lumilmager™ (Boehringer-Mannheim Corp.) (FIG. 1A-1, 1A-2, 1B-1 and B-2).

[2] = target: T2, 22nd of the 82 13-mer peptides covering the extracellular region of CD40 (reading uncertain); experiment: as above
T2 construct: also called 22nd peptide
T2 peptide: Ac-GESEFLDTWNRET-{cellulose membrane}
Protocol: as §1

[3] = target: T3, 21st of the 82 13-mer peptides covering the extracellular region of CD40 (reading uncertain); experiment: as above
T3 construct: also called 21st peptide
T3 peptide: Ac-PCGESEFLDTWNR-{cellulose membrane}
Protocol: as §1

[4] = target: T4, 24th of the 82 13-mer peptides covering the extracellular region of CD40 (reading uncertain); experiment: as above
T4 construct: also called 24th peptide
T4 peptide: Ac-FLDTWNRETHCHQ-{cellulose membrane}
Protocol: as §1

[5] = target: T5, 41st of the 82 13-mer peptides covering the extracellular region of CD40 (cysteine pairing not given here; reading uncertain); experiment: as above
T5 construct: also called 41st peptide
T5 peptide: Ac-TICTCEEGWHCTS-{cellulose membrane}
Protocol: as §1

[6] = target: T6, 20th of the 82 13-mer peptides covering the extracellular region of CD40 (cysteine pairing not given here; reading uncertain); experiment: as above
T6 construct: also called 20th peptide
T6 peptide: Ac-CLPCGESEFLDTW-{cellulose membrane}
Protocol: as §1

[7] = target: T7, CD40mut2 (mutant CD40-FC fusion protein) (UniProt P25942 21-193, limits assumed); experiment: ELISA on mutant CD40-FC fusion protein
T7 construct: Human CD40 implied
T7 sequence (P25942 other isoform, or with tags, fused parts or gaps mutant limits assumed): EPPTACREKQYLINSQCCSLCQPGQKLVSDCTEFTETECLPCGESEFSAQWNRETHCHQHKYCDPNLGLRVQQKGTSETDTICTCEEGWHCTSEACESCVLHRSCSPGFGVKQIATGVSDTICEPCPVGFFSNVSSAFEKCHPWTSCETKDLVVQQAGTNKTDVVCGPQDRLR

[8] = target: T8, human CD40 expressed on cells (Ramos, T24, Hs 766T, Capan-2) (human, UniProt P25942 21-277); experiment: flow cytometry on Ramos cells
T8 construct: whole, on cells; also called Ramos cells expressing human CD40
T8 sequence (P25942 21-277): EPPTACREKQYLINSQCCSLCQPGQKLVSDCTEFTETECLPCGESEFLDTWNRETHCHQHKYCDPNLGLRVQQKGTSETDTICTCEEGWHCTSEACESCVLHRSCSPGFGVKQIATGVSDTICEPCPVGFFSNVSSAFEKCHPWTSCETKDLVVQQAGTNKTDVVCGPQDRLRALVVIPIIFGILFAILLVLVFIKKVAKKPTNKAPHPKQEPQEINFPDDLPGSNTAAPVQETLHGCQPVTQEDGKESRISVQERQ

[9] = target: T8, human CD40 expressed on cells (Ramos, …); experiment: cell-based or functional assay
[10] = target: T9, 17th of the 82 13-mer peptides covering the extracellular region of CD40 (cysteine pairing not given here; reading uncertain); experiment: SPOT peptide array (13-mers on cellulose membrane), Western-type detection, spot intensity by LumiImager
T9 construct: also called 17th peptide
T9 peptide: Ac-EFTETECLPCGES-{cellulose membrane}
Protocol: as §1

[11] = target: T10, 12th of the 82 13-mer peptides covering the extracellular region of CD40 (reading uncertain); experiment: as above
T10 construct: also called 12th peptide
T10 peptide: Ac-PGQKLVSDCTEFT-{cellulose membrane}
Protocol: as §1

[12] = target: T11, 13th of the 82 13-mer peptides covering the extracellular region of CD40 (reading uncertain); experiment: as above
T11 construct: also called 13th peptide
T11 peptide: Ac-QKLVSDCTEFTET-{cellulose membrane}
Protocol: as §1

[13] = target: T12, 16th of the 82 13-mer peptides covering the extracellular region of CD40 (cysteine pairing not given here; reading uncertain); experiment: as above
T12 construct: also called 16th peptide
T12 peptide: Ac-CTEFTETECLPCG-{cellulose membrane}
Protocol: as §1

[14] = target: T13, 14th of the 82 13-mer peptides covering the extracellular region of CD40 (cysteine pairing not given here; reading uncertain); experiment: as above
T13 construct: also called 14th peptide
T13 peptide: Ac-LVSDCTEFTETEC-{cellulose membrane}
Protocol: as §1

[15] = target: T14, 64th of the 82 13-mer peptides covering the extracellular region of CD40 (reading uncertain); experiment: as above
T14 construct: also called 64th peptide
T14 peptide: Ac-PVGFFSNVSSAFE-{cellulose membrane}
Protocol: as §1

[16] = target: T15, 18th of the 82 13-mer peptides covering the extracellular region of CD40 (cysteine pairing not given here; reading uncertain); experiment: as above
T15 construct: also called 18th peptide
T15 peptide: Ac-TETECLPCGESEF-{cellulose membrane}
Protocol: as §1

[17] = target: T16, 15th of the 82 13-mer peptides covering the extracellular region of CD40 (cysteine pairing not given here; reading uncertain); experiment: as above
T16 construct: also called 15th peptide
T16 peptide: Ac-SDCTEFTETECLP-{cellulose membrane}
Protocol: as §1

[18] = target: T17, 19th of the 82 13-mer peptides covering the extracellular region of CD40 (cysteine pairing not given here; reading uncertain); experiment: as above
T17 construct: also called 19th peptide
T17 peptide: Ac-TECLPCGESEFLD-{cellulose membrane}
Protocol: as §1

[19] = target: T18, 42nd of the 82 13-mer peptides covering the extracellular region of CD40 (cysteine pairing not given here; reading uncertain); experiment: as above
T18 construct: also called 42nd peptide
T18 peptide: Ac-CTCEEGWHCTSEA-{cellulose membrane}
Protocol: as §1

binding result [1]: binds | binding result [2]: binds | binding result [3]: binds | binding result [4]: binds | binding result [5]: binds | binding result [6]: binds | binding result [7]: binds | binding result [8]: binds
B1: 4D11 antibody (original subclass IgG1) (antibody, V domains shown)
VH: QLQLQESGPGLLKPSETLSLTCTVSGGSISSPGYYGGWIRQPPGKGLEWIGSIYKSGSTYHNPSLKSRVTISVDTSKNQFSLKLSSVTAADTAVYYCTRPVVRYFGWFDPWGQGTLVTVSS
VL: AIQLTQSPSSLSASVGDRVTITCRASQGISSALAWYQQKPGKAPKLLIYDASNLESGVPSRFSGSGSGTDFTLTISSLQPEDFATYYCQQFNSYPTFGQGTKVEIK
notes: also called 4D11G1

binding result [8]: binds
B2: 4D11G4PE (4D11 antibody, IgG4 with S228P and L235E) (antibody, V domains shown)
VH: B1 VH
VL: AIQLTQSPSSLSASVGDRVTITCRASQGISSALAWYQQKPGKAPKLLIYDASNLESGVPSRFSGSGSGTDFTLTISSLQPEDFATYYCQQFNSYPTFGQGTKVEIKR
notes: also called IgG4PE; 4D11 antibody G4PE

binding result [8]: binds
B3: 4D11 antibody IgG4 (antibody, V domains shown)
VH: B1 VH
VL: B1 VL
notes: Human IgG4 constant region (vector N5KG4), no point mutation; also called 4D11 IgG4

binding result [8]: binds
B4: 4D11G4P (4D11 antibody, IgG4 with S228P) (antibody, V domains shown)
VH: B1 VH
VL: B1 VL
notes: Human IgG4 constant region with point mutation S228P (EU index; vector N5KG4P); also called IgG4P

CD95 expression enhancing activity in Ramos cells, reduction against IgG2 [9]: ≥ 10%
B5: 2105 antibody, constant region converted into IgG1 (antibody, V domains shown)
VH: EVQLVESGGGLVQPGRSLRLSCAASGFTFDDYAMHWVRQAPGKGLEWVSGISWNSGSLVHADSVKGRFTISRDNAKNSLYLQMNSLRAEDTALYYCARDRLFRGVRYYGMDVWGQGTTVTVSS
VL: EIVLTQSPATLSLSPGERATLSCRASQSVSSYLAWYQQKPGQAPRLLIYDASNRATGIPARFSGSGSGTDFTLTISSLEPEDFAVYYCQQRSHWLTFGGGTKVEIK

CD95 expression enhancing activity in Ramos cells, reduction against IgG2 [9]: ≥ 10%
B6: 2105 antibody, constant region converted into IgG4 (antibody, V domains shown)
VH: B5 VH
VL: B5 VL

binding result [1]: binds | binding result [10]: binds | binding result [11]: binds | binding result [12]: binds | binding result [2]: binds | binding result [3]: binds | binding result [13]: binds | binding result [14]: binds | binding result [15]: binds | binding result [16]: binds | binding result [17]: binds | binding result [18]: binds | binding result [6]: binds
B7: 2105 antibody (original IgG2) (antibody, V domains shown)
VH: B5 VH
VL: B5 VL

CD95 expression enhancing activity in Ramos cells, reduction against IgG2 [9]: ≥ 10%
B8: 2105 antibody, constant region converted into IgG3 (antibody, V domains shown)
VH: B5 VH
VL: B5 VL

CD95 expression enhancing activity in Ramos cells, reduction against IgG2 [9]: ≥ 10%
B9: KM341-1-19 antibody, constant region converted into IgG1 (antibody, V domains shown)
VH: QVQLQQSGPGLVKPSQTLSLTCAISGDSVSSNSATWNWIRQSPSRDLEWLGRTYYRSKWYRDYVGSVKSRIIINPDTSNNQFSLQLNSVTPEDTAIYYCTRAQWLGGDYPYYYSMDVWGQGTTVTVSS
VL: EIVLTQSPATLSLSPGERATLSCRASQSVSSYLAWYQQKPGQAPRLLIYDASNRATGIPARFSGSGSGTDFTLTISSLEPEDFAVYYCQQRSNTFGPGTKVDIK

binding result [19]: binds | binding result [5]: binds
B10: KM341-1-19 antibody (original IgG2) (antibody)
heavy: QVQLQQSGPGLVKPSQTLSLTCAISGDSVSSNSATWNWIRQSPSRDLEWLGRTYYRSKWYRDYVGSVKSRIIINPDTSNNQFSLQLNSVTPEDTAIYYCTRAQWLGGDYPYYYSMDVWGQGTTVTVSSASTKGPSVFPLAPCSRSTSESTAALGCLVKDYFPEPVTVSWNSGALTSGVHTFPAVLQSSGLYSLSSVVTVPSSNFGTQTYTCNVDHKPSNTKVDKTVERKCCVECPPCPAPPVAGPSVFLFPPKPKDTLMISRTPEVTCVVVDVSHEDPEVQFNWYVDGVEVHNAKTKPREEQFNSTFRVVSVLTVVHQDWLNGKEYKCKVSNKGLPAPIEKTISKTKGQPREPQVYTLPPSREEMTKNQVSLTCLVKGFYPSDIAVEWESNGQPENNYKTTPPMLDSDGSFFLYSKLTVDKSRWQQGNVFSCSVMHEALHNHYTQKSLSLSPGK
VL: B9 VL
notes: Human IgG2; also called original KM341-1-19 antibody

CD95 expression enhancing activity in Ramos cells, reduction against IgG2 [9]: ≥ 10%
B11: KM341-1-19 antibody, constant region converted into IgG3 (antibody, V domains shown)
VH: B9 VH
VL: B9 VL

CD95 expression enhancing activity in Ramos cells, reduction against IgG2 [9]: ≥ 10%
B12: KM341-1-19 antibody, constant region converted into IgG4 (antibody, V domains shown)
VH: B9 VH
VL: B9 VL
